This is an account of results in the DeepSol protein solubility set.

A short description of this series: soluble on expression in E. coli; label from the status in PepcDB or PDB records.
As for “MSLLVIPAIDLQSGRCVRLKQGRFDQVTQFSVFPIERALHFAKLGAKRLHVVDLDGARSGKMQQLELICSMQKTGIPIQAGGGIRSIEQALECSNAGISQLVIGSLAITNPDLTIQIIEKIKPENIVLALDVRVDTKVPLLAINGWQNNSTSSLWEVVSYYENYGIKNILCTDIACDGMMNGPNFDLYQQAVEYFPQIAWQASGGVRHMQDITTLNSLGISAVILGLMLYQDHMNLEELLEGHHHHHH”, the “soluble on expression in E. coli” value is “soluble”. As to “MGSDKIHHHHHHMLISSRIVRSSLVNVPLRLSRCFTQAHRACKEEEVNSPLSSAAEQPEQKYTHFGSKTVLKSTKQKLVGDVFSSVANRYDLMNDVMSLGIHRLWKDHFINKLDAGKRPNSTTPLNFIDVAGGSGDIAFGLLDHAESKFGDTESTMDIVDINPDMLKEGEKRAMEQGKYFKDPRVRFLVSNGEKLEEIDSDSKDIYTVSFGIRNFTDIQKGLNTAYRVLKPGGIFYCLEFSKIENPLMDFAYQQWAKVLPVMGSMIANDYDSYQYLVESIERFPDQETFKSMIEKAGFKSAGYESLTFGICAIHWGIKV”, the “soluble on expression in E. coli” value is given as “not soluble”. To “MSKVMNALKQSQQKYLQAQPVSRRTYTEQEPTAMNPSRWLHLALWLVPGLVTAGVMTYQRYELVQQEVANRQTEPTTVQVDAPLERLAYPEFQDLQPTFVESGLDEPYPEEDVTALADNIVAPPATIQASGQQSASNKALGDLDLTQLSPELALRVQAIMRDQSSEPATPSTPTSAAVSLTQHSDRYQGQLPALNFQMHAFSSNEQKRWIKVNGVEYREGDMLTPEVKLESIKPQSSVIIFGGEEIEIPALYDWKG” belongs “not soluble”; to “MKKNFFSDLPEETIVNTLSFLKANTLARIAQTCQFFNRLANDKHLELHQLRQQHIKRELWGNLMVAARSNNLEEVKKILKKGIDPTQTNSYHLNRTPLLAAIEGKAYQTANYLWRKYTFDPNFKDNYGDSPISLLKKQLANPAFKDKEKKQIRALIRGMQEEKIAQSKCLVC”, “not soluble”; to “MSLTGRAFAIPLRTRFRGITVREGMLVRGAAGWGEFSPFAEYGPRECARWWAACYEAAELGWPAPVRDTVPVNATVPAVGPEEAARIVASSGCTTAKVKVAERGQSEANDVARVEAVRDALGPRGRVRIDVNGAWDVDTAVRMIRLLDRFELEYVEQPCATVDELAEVRRRVSVPIAADESIRRAEDPLRVRDAEAADVVVLKVQPLGGVRAALRLAEECGLPVVVSSAVETSVGLAAGVALAAALPELPYACGLATLRLLHADVCDDPLLPVHGVLPVRRVDVSEQRLAEVEIDPAAWQARLAAARAAWEQVEREPGPEGHHHHHH”, “soluble”.

With “NQIYLPMVDFRPFKVGKSLRELTQAPAGAPEDVYEYVFVYEKNGKRQEFDMDHLPDDSWTYVDRHEKLIKKGYTPPVTDFLLLRGGEDVTSEIVNKKGITLLLLSPDWENASDDKMDNISEMYDYAQEHAWDFYGVSASTSDDISTWRYNTGADYPMLFLDAVTVKTITRGNPSLVILRDGVIRGKVSDANFPGVGQAQAFFDRYIGNELYQPS”, the “soluble on expression in E. coli” value is recorded as “not soluble”. With “MTNKISSSDNLSNAVSATDDNASRTPNLNRRALVGGGVGLAARGALASGLQAATLPAGASQVPTTPAGRPMPYAIRPMPEDRRFGYAIVGLGKYALNQILPGFAGCQHSRIEALVSGNAEKAKIVAAEYGVDPRKIYDYSNFDKIAKDPKIDAVYIILPNSLHAEFAIRAFKAGKHVMCEKPMATSVADCQRMIDAAKAANKKLMIGYRCHYDPMNRAAVKLIRENQLGKLGMVTTDNSDVMDQNDPAQQWRLRRELAGGGSLMDIGIYGLNGTRYLLGEEPIEVRAYTYSDPNDERFVEVEDRIIWQMRFRSGALSHGASSYSTTTTSRFSVQGDKAVLLMDPATGYYQNLISVQTPGHANQSMMPQFIMPANNQFSAQLDHLAEAVINNKPVRSPGEEGMQDVRLIQAIYEAARTGRPVNTDWGYVRQGGY” the entry was “soluble”; with “NALPAGNYLVASPQRYNPPGVLDSQTELPRLLAQARREVRVQLLDYAPLSYGPDKTRPYYAVIDNAIRSAAARGVSIKLMVSDWNTGMPEVAYLKSLALVPNVQVRIVTLPVAAEGFIPYARVIHSKTMDIDDQVAWVGTSNWLGGYLDNSRNLEVVMHDSTMAKRIGVLHEQLWDGPYAKPIDINRDYPEPH”, “not soluble”. With “MGEQDPSDRLRGDQLKEPNQNGKGSFSQFSSSVRAMVRIRMKYQAIKKRRMEIASATPQIFTSPRSTSPKVFTFDNLHEPVNSNPASPRKRKKKRKGRVLYPTSSLRAVPTKESSRAKNCLYLLCIIVFLQVYNAIENLDDHVLKYDLEGLEKTLKREVFGQQEVAEGLLGHLQDYLSTYVHNKPLVLSFHGPTGVGKSHVGRLLAQHFRSVVGEELVMQYFVLHHCPTDDDIPVCTKSLESHISEMVSQGEEEEKIPVFIFDEVEHMPRQLMDTLRELIQPQNSNKYLNAIYILISNLGHEDITKFVLHNSSIAISGRLSLTQELTPWLRNYLQEHHGLFLDAEYLPFMLLEKSHVMDCFIDEMSREGFYPDRSHVERLAEELSYYIVGEREFSHTGCRQVVAKVNLL”, the “soluble on expression in E. coli” value is listed as “soluble”.

For “MGSDKIHHHHHHMKLHQLRALVAIHNAGSILEASKLMHITQPALSRSIKELEREVGFTLLQRSHKGMALTEEGKRVIRHANLVVESIRRLQIEAASIQDAALGAVSIGVTSLTAMLDGVDESILAFRRKYPRVKITITDLRPSQILQRLRDGSLDFAITSQQPLSRLSLDWEALGSIKGRVICHASNRQKFSQSLRTLQYAPWISLDELSDQASQFHQLFEANGLRVPQNTVECTSVMMALKLLKNTESLMTISELAVDQGFTYGIDCEFVAMAVQELIPDYPINLVCIDRHSLTAPAQELFHSLRGQVLKQTRPVGSEVVVHA”, the “soluble on expression in E. coli” value is given as “not soluble”. To “MSLYKADMLGDAYEYLIKQFADDAGKKGGEFYTPKAVVQLVVELIDPRPGHSVYDPTCGSGGMLVESAHHVSGLPDGTLMGKPNVLLYGQEKNLGTWAIAKLNLYLHNMHASIERGDTLVEPKHLDGDYLKTFDRVIANPPFSAKSWWTPLELSNENEQENGKKVKAPNYKQVSDPYGRLVYGVPPRGYADLAFAQHMLASLKADGRMGVILPHGVLFRSGEEGKIREGLLFGTGAASGNQPGDVIEAIVGLPSALFYNTGIPACVLILNKQKPSALKDKVIIIDGSRDYLEGKAQNSLHAEDILRIVSTHKAAFEQQVEVENYCRLVTLDEIRSNDGNLNIVRYIDNGESDEVVNVAATLAHMATLAKEEAQIDQRLNRYLMELGLLETGEGHHHHHH” belongs “not soluble”; to “MGSTSTPDSSTNRLQDKVAIITGGAGGIGETTAKLFVRYGAKVVIADIADDHGQKVCNNIGSPDVISFVHCDVTKDEDVRNLVDTTIAKHGKLDIMFGNVGVLSTTPYSILEAGNEDFKRVMDINVYGAFLVAKHAARVMIPAKKGSIVFTASISSFTAGEGVSHVYTATKHAVLGLTTSLCTELGEYGIRVNCVSPYIVASPLLTDVFGVDSSRVEELAHQAANLKGTLLRAEDVADAVAYLAGDESKYVSGLNLVIDGGYTRTNPAFPTALKHGLA”, “soluble”; to “MALQSSVRAFKKPPRPLVDEVRFLRSWIEKPLHMGAVMPSGKLLARTMARYVDIQSDGPVIELGPGTGAITNALVEHGVDQKRLVLLEFDPGFCALLRERFPLAKVVQGDAYRLRDSLWDALEIPATAVVSGLPLVTKPMLTRMKLIRDAFTLLEPGAPFVQFTYSVAPPIPKSLPGVSTEGSERIWMNVPPARVWVYRKRLEHHHHHH”, “not soluble”. For “MKVLVVGNGGREHAIAWKVAQSPLVKELYVAKGNAGIWEIAKRVDISPTDVEKLAEFAKNEGVDFTIVGPEAPLVEGIVDEFEKRGLKIFGPNKEAAKLEGSKAFAKTFMKKYGIPTARYEVFTDFEKAKEYVEKVGAPIVVKADGLAAGKGAVVCETVEKAIETLDRFLNKKIFGKSSERVVIEEFLEGEEASYIVMINGDRYVPLPTSQDHKRLLDEDKGPNTGGMGAYSPTPVINEEVEKRIREEIVERVIKGLKEEGIYYRGFLYAGLMITKEGPKVLEFNVRLGDPEAQPILMRVKNDFLETLLNFYEGKDVHIKEDERYALDVVLASRGYPEKPETGKIIHGLDYLKSMEDVVVFHAGTKKEGNFTVTSGGRVLNVCAYGKTLKEAKERAYEAIRYVCFEGMHYRKDIGDKAFKYLSE”, the “soluble on expression in E. coli” value is given as “soluble”. With “MSMIETWTAVDQYVSDVLIPKDSTLEEVLQVNAAANLPAHDVSPTQGKFLQLLVQIQGARNILEIGTLGGYSTIWLARGLSSGGRVVTLEASEKHADIARSNIERANLNDRVEVRTGLALDSLQQIENEKYEPFDFIFIDADKQNNPAYFEWALKLSRPGTVIIGDNVVREGEVIDNTSNDPRVQGIRRFYELIAAEPRVSATALQTVGSKGYDGFIMAVVKE” the entry was “soluble”.

As to “KLGTSTGEFTGSNQTTQPTAIMELINKVQKDAANAQLSIAAPLSSSAYIPKGDVTIKDIMSVYVYENYLYGIKMTGKQLKDWLEYSVRYYKQVSSPNDSIAKDPALNVPDYNLDQLYGATYDIDLTQPACTIDPSTGRIASGDRIKNLKINGVPIKDSDVFTVAINDYRYNGGGGFMKAAGISNTDPSIVTYSSAKALGDDGQVRSLMQSYIKNNQTISPENSNNWKLYTT”, the “soluble on expression in E. coli” value is listed as “not soluble”.

For “MGSDKIHHHHHHMNNYNDTIRNLDNIVYKPNNLMITNVKEEKQNAEYAGCIFHLNNKTIRFRKSKITPNKIGQFVSFWEKGDNMQNQAFSYNAAPDLLVITCIDDNKLGQFIFPKEILLKEKILRTENQKGKMAMRIYPIWDTPVSNQAKKSQLWQIQYFVDLSNHNNLTIDELLNLYS”, the “soluble on expression in E. coli” value was “not soluble”. On to “MLVDKTEFEAWMERIMGELYRISRKLDKAETREKHLNYLNGERLYDNQEVCLLLRISKRTLQRYRNNGVLKFYSIYHKTYYKESDLHEFIRNNFDENEIKRQAREDKLSESYPLPKE”, for which the “soluble on expression in E. coli” value is “not soluble”.

As to “MSEKWIPEIMTPLKQDIVKMPEIIRQASGIKIFGRKIKSIIFTTDIAIIRNTDAQAVIAVYPFTPHPAITKGIIEAADIPVFSGVGGGLTQGMRSAYMSLFAEAQGSMGVVLNGPTPIETIKMVDEAIDIPIISTVTSIHTPIDEKLAAGVDMINISAGKDTAATVRYFRGKYPELPIIATGGPTESSIHETIIAGANAITYTPPSNGELFSKKMKKYREQEKATDEE”, the “soluble on expression in E. coli” value is given as “soluble”. In the case of “MSLGSQTDGSPAGGWPALNAVNKHLLHQHVLVKGNRTLLSMNKPGGFDCPSCSWPDPKKPHTFEYCENGAKALAWESTKKRVTPEFFARHTVSELATWSDHDLEKQGRIAEPMRYDAASDKYLPVTWDEAFAEIGEELRQLSDPWKLELYTSGRTSNEAAFLYQLFGRLYGMANFPDCSNMCHETTTVALPESIGVGKGTTTLEDFENADAIFIIGQNPGSNSPRMMSELHAAAKRGASIISFNPLREKALVRFASPQDPRDMLSLHGVEISSQYHQVRIGGDMIALQGVCKAVIEADDVARREHLPRVLDVAFIEEHTHGFEQYADYCRQLPWDLIESHSGLTRQAIEDVAAVYRRSERVICCWGMGVTQHKRGGDAVQQIINLLLLRGNIGKLGAGACPVRGHSNVQGDRTMGIYEKAGEPFLASMSKVFGFEASRRKGHAVAETCEALLRGEVEALISMGGNFFRAIPDIDAICPTVSRLKMTVLVNTKLNRSATVHGQKAFLLPCVARSERDLQNGVAQTITVEDSMSIVHGSTGMLEPASKHLISEVAIIAGIAKATLAPNPNVDWDSYVGDYARIRDKIEEVLPEQFYDFNRRILEPGGFRLPNAASERKWDTESGKANFLFTEGIYDEDDTPPGAAHLQLMTIRSHDQFNTTVYSNDDRYRDIFGDRMVVMLNPQDIERLGLKAGDYIEFQTALDLTTPRRAPGFKVIAYDVPPGCCAAYYPETNGLLPLANRDSRSNTPAAKSIPVNLVRMSPEGAQVALEREGHHHHHH”, the “soluble on expression in E. coli” value is “soluble”.
